Assay [1] concerns the target recombinant His BRD4 (1-477aa) (UniProt O60885 1-477). In words: ELISA.
Assay [2] addresses His-Sumo BRD4 (1-477aa) wild type, not methylated (UniProt O60885 1-477). The experiment in a line: ELISA.

B1: recombinant glutathione S-transferase (GST) SETD6 (enzyme)
chain: MATQAKRPRVAGPVDGGDLDPVACFLSWCRRVGLELSPKVSERAGGRRTRGGARAALTSPPAQVAVSRQGTVAGYGMVARESVQAGELLFVVPRAALLSQHTCSIGGLLERERVALQSQSGWVPLLLALLHELQAPASRWRPYFALWPELGRLEHPMFWPEEERRCLLQGTGVPEAVEKDLANIRSEYQSIVLPFMEAHPDLFSLRVRSLELYHQLVALVMAYSFQEPLEEEEDEKEPNSPVMVPAADILNHLANHNANLEYSANCLRMVATQPIPKGHEIFNTYGQMANWQLIHMYGFVEPYPDNTDDTADIQMVTVREAALQGTKTEAERHLVYERWDFLCKLEMVGEEGAFVIGREEVLTEEELTTTLKVLCMPAEEFRELKDQDGGGDDKREEGSLTITNIPKLKASWRQLLQNSVLLTLQTYATDLKTDQGLLSNKEVYAKLSWREQQALQVRYGQKMILHQLLELTS
Regarding B1, the binding result in assay [1] was “binds”.

B2: His E2F1 (natural protein)
chain: not shown
As for B2, the binding result in assay [2] is “binds”.

The values are drawn from paper PMC8153730 (Science Advances, 2021).
